Source: patent US20250042994A1 (HAINAN SIMCERE ZAIMING PHARMACEUTICAL, published 2025)

T1: human CD19 on CHO-K1-human CD19 cells (human, UniProt P15391 20-556)
T1 construct: whole, on cells; also called CHO-K1-human CD19-2C8
T1 sequence (looked up): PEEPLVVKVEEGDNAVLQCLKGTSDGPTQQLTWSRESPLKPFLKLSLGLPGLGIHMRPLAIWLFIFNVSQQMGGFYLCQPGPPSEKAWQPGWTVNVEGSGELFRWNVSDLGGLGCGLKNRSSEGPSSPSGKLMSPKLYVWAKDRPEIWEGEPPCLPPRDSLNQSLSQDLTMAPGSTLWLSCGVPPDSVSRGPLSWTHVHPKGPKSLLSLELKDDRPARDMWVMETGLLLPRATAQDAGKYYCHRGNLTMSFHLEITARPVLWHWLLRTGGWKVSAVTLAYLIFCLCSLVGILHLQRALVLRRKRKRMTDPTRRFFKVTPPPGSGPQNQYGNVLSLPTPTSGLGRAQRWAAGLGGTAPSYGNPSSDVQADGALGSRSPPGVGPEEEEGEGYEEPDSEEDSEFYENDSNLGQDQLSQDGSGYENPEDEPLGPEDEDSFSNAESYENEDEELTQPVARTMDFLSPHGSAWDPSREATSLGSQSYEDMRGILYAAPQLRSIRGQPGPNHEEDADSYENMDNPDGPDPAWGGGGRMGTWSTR

T2: human CD19 on Raji cells (human, UniProt P15391 20-556)
T2 construct: whole, on cells
T2 sequence (looked up): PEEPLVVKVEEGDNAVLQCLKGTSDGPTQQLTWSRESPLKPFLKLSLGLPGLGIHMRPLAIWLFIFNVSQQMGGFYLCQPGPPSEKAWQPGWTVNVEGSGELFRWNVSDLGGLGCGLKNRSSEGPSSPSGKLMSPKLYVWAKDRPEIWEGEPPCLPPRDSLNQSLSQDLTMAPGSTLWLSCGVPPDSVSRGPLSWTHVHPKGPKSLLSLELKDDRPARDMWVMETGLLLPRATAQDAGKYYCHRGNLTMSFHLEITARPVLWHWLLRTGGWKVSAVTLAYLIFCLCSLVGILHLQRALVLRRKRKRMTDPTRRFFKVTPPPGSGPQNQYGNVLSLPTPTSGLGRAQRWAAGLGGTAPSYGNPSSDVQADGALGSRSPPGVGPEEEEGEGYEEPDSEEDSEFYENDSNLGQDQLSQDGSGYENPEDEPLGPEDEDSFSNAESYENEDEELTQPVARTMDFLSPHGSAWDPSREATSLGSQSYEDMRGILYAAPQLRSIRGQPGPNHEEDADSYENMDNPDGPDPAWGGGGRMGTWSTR

T3: Human CD19-his protein (human, UniProt P15391 20-291)
T3 construct: bought protein; also called recombinant human CD19-His; CD19 full-length protein; not shown: His tag
T3 sequence (looked up): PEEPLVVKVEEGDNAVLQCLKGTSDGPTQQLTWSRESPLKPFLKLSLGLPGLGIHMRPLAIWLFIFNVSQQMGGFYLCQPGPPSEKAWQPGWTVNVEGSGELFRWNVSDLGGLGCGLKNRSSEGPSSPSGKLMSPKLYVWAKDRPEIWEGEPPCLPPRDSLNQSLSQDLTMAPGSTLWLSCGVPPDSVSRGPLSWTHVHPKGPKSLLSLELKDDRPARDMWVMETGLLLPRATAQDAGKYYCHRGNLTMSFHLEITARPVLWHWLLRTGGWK


How the values were obtained:
[1] = molecular target: T1, human CD19 on CHO-K1-human CD19 cells; test: FACS on CHO-K1-human CD19 cells
Text: (§1) The desired cells were scale-up cultured in a T-75 cell culture flask to the logarithmic growth phase. For the adherent cell CHO-K1, the medium was aspirated, the cells were washed 2 times with a PBS buffer, and then digested with trypsin. After the digestion was terminated, the cells were washed 2 times with a PBS buffer; and for suspension cell Raji, the supernatant of the medium was discarded by directly centrifugation, and the cell pellet was washed 2 times with PBS. After counting the cells in the previous step, the cell pellet was resuspended with [PBS+2% (w/w) BSA] blocking solution to 2×10⁶ cells/ml, and added to a 96-well FACS reaction plate at 50 μl/well, and then the sample to be tested was added at 50 μl/well, and incubated on ice for 2 h. The obtained mixture was centrifuged and washed 3 times with a PBS buffer. […] The obtained mixture was centrifuged and washed 5 times with a PBS buffer, and FACS (FACS Canto™, purchased from BD Company) was used for detection and result analysis. Data analysis was performed by software (FlowJo) to obtain the mean fluorescence intensity (MFI) of the cells. And then software (GraphPad Prism8) was used for analysis, data fitting, and EC50 value calculation. […] The same method was used to detect the binding of the chimeric antibodies to endogenous CD19-negative cells, MoLT4 cells (purchased from ATCC, CRL-1582), and CHO-K1 cells.

[2] = molecular target: T4, monkey CD19 on HEK293T-monkey CD19 cells (monkey); test: FACS on HEK293T-monkey CD19 cells
T4 construct: whole, on cells
Method: as §1, with “After” for “The desired cells were scale-up cultured in a T-75 cell culture flask to the logarithmic growth phase. For the adherent cell CHO-K1, the medium was aspirated, the cells were washed 2 times with a PBS buffer, and then digested with trypsin. After”
HEK293T-monkey CD19 cells were subjected to FACS detection and data analysis according to the method in example 5.2. […] The same method was used to detect binding of the chimeric antibodies to HEK293T cells.

[3] = molecular target: T2, human CD19 on Raji cells; test: FACS on Raji cells
Text: as §1

[4] = molecular target: T3, Human CD19-his protein; test: SPR Biacore, Ab captured on Protein A, CD19-His analyte
Method: A sample buffer and a running buffer were HBS-EP+ (10 mM HEPES, 150 mM NaCl, 3 mM EDTA and 0.05% surfactant P20) (GE Healthcare; BR-1006-69). The flow-through cell was set to 25° C. The sample block was set to 16° C. Both were pretreated with the running buffer. In each cycle, an antibody to be detected was first captured with a Protein A chip, and then a single concentration of CD19 antigen protein was injected. The binding and dissociation processes of the antibody and the antigen protein were recorded, and finally Glycine pH 1.5 (GE Healthcare; BR-1003-54) was used to complete chip regeneration. The binding was measured by injecting different concentrations of recombinant human CD19-His proteins in a solution for 240 s with a flow rate of 30 μl/min. The concentration started from 200 nM (see the detailed results for the actual concentration in the test) and was diluted at 1:1, making a total of 5 concentrations. The dissociation phase was monitored for up to 600 s and was triggered by switching from sample solution to running buffer. The surface was regenerated by washing with a 10 mM glycine solution (pH 1.5) for 30 s at a flow rate of 30 μl/min. Bulk refractive index difference was corrected by subtracting the response obtained from the goat anti-human Fc surface. Blank injection was also subtracted (=double reference). For calculation of apparent KD and other kinetic parameters, Langmuir 1:1 model was used.

Binder	Maximum mean fluorescence intensity [1]	EC50 [2] [pM]	Maximum mean fluorescence intensity [2]	EC50 [3] [pM]	Maximum mean fluorescence intensity [3]	EC50 [1] [pM]	Kd [4] [pM]	koff [4] [s⁻¹]	kon [4] [M⁻¹ s⁻¹]
F6.2.9 (antibody, human IgG1, V domains shown, human-murine chimeric antibody, human IgG1) VH: QVQLQQSGAELVKPGASVKISCKASGYAFSSYWMNWVKQRPGKGLEWIGQIYPGDGDTNYNGKFKGKATLTADKSSSTGYMQLSSLTSEDSAVYFCARSRITSVVDWYFDVWGTGTTVTVSS VL: QIVLSQSPAILSASPGEKVTMTCRASSSVSYMHWYQQKPGSSPKPWIYATSNLASGVPARFSGSGSGTSYSLTISRVEAEDAATYYCQQWSSNPPTFGAGTKLELK	10300	86000	2130	980	21500	–	–	–	–
F4.15.9 (antibody, human IgG1, V domains shown, human-murine chimeric antibody, human IgG1) VH: QVQLQQSGPELVKPGASVKISCKASGYAFSSSWMNWLKQRPGQGLEWIGRIYPGDGDTNYNGKFKGKATLTADESSSTAYMQLSSLTSVDSAVYFCARGITTIITIAWFASWGQGTLVTVSA VL: QIVLSQSPTILSASPGEKVTMTCRASSSVSYMHWYQQKPGSSPKPWIYATSNLASGVPPRFSGSGSGTSYSLTISRVGAEDAATYYCQQWSSDPWTFGGGTKLEIK	20500	–	14800	710	31300	170	–	–	–
F5.7.1 (antibody, human IgG1, V domains shown, human-murine chimeric antibody, human IgG1) VH: QVTLKESGPGILQPSQTLSLTCSFSGFSLTTFGMGVGWIRQPSGKGLEWLTHIWWDDDKYYNPALKSRLTISKDTSKNQVFLRIANVDTADTATYYCARVITTGVPYFDYWGQGTTLTVSS VL: ENVLTQSPAIMSASPGEKVTMTCRASSSVSSSYLYWYQQKSGASPKLWISSTSNLASGVPARFSGSGSGTSYSLTINSVEAEDAATYYCQQYSGYPWTFGGGTKLEIK	56200	–	938	1130	28700	1540	–	–	–
F4.180.1 (antibody, human IgG1, V domains shown, human-murine chimeric antibody, human IgG1) VH: EVQLQQSAPELVKPGASVKMSCKTSGYTFTENIIHWVKQTHGKSLEWIGGINPDNGGTSYHQKFKGRTTLTIDKSSSTAYMELRSLTSDDSAVFFCARQAPLYWYFDIWGAGTTVTVSS VL: DIVLTQSPASLAVSLGQRATISCRASESVDSYGNSLMHWFQQKPGQPPRLLIYRASNLESGIPARFSGSGSRTDFTLTITPVEADDVATYYCQQSNEDPWTFGGGTKLEIK	49600	–	94	960	23700	1240	–	–	–
F3.23.10 (antibody, human IgG1, V domains shown, human-murine chimeric antibody, human IgG1 constant) VH: EFQLQQSGPELVKPGASVKISCKASDYSFTDYNMNWVKQSNGASLEWIGIINPNFGSTSYNQKFKGKATLTVDQSSSTAFMQLNSLTSEDSAVYYCARSEYYGSSGFAYWGQGTLVTVSA VL: DVVVTQTPLSLPVSFGDQVSISCRSSQSLVNSYGNTYLSWYLHKPGQSPQLLIYGISNRFSGVPDRFSGSGSGTDFTLKITTIKPEDLGMYYCLQGTHQPWTFGGGTKLEIK	–	–	–	–	–	–	5240	0.000186	35400
F3.23.10 (antibody, human IgG1, V domains shown, human-murine chimeric antibody, human IgG1) VH: EFQLQQSGPELVKPGASVKISCKASDYSFTDYNMNWVKQSNGASLEWIGIINPNFGSTSYNQKFKGKATLTVDQSSSTAFMQLNSLTSEDSAVYYCARSEYYGSSGFAYWGQGTLVTVSA VL: DVVVTQTPLSLPVSFGDQVSISCRSSQSLVNSYGNTYLSWYLHKPGQSPQLLIYGISNRFSGVPDRFSGSGSGTDFTLKITTIKPEDLGMYYCLQGTHQPWTFGGGTKLEIK	50400	–	77	4770	14900	3590	–	–	–
F4.125.12 (antibody, human IgG1, V domains shown, human-murine chimeric antibody, human IgG1) VH: EVKLVESGGGLVQPGGSLKLSCAASGFTFSTYTMSWVRQTPEKRLEWVAFISSGGGHINYPDTVKGRFTISRDNAKNTLYLQMSSLKSEDTAMYYCARHSYWFFDVWGAGTTVTVSS VL: DVQITQSPSYLAASPGETITINCRASKNIDTYLAWYQEKPGKTNKLLIYSGSTLQSGIPSRFRGGGSGTDFTLTICSLEPEDFAMYYCQQHNEYPLTFGAGTKLELK	51800	–	4080	510	27100	480	–	–	–
F4.145.9 (antibody, human IgG1, V domains shown, human-murine chimeric antibody, human IgG1) VH: EVQLVESGGGLVKPGGSLKLSCAAAGFAFSSYDMSWVRQIPEKRLEWVAYISAGGGNTYFLDTVKGRFTISRDHAKNTLSLQMSSLKSEDTAMYFCVRHGDYYRYFYAMDYWGQGSSVTVSS VL: DIVMTQSHKFMSTSVGDRVSITCKASQDVGTAVAWSQQKPGQSPKLLIYWASTRHTGVPDRFTGSGSGTDFTLTISNVQSEDLADYFCQQFVTYPYTFGGGTKLEIK	48500	–	108	780	20000	840	–	–	–
F5.11.2 (antibody, human IgG1, V domains shown, human-murine chimeric antibody, human IgG1 constant) VH: EVQLVESGGDLVKPGGSLKLSCAASGFTFSSYGMSWVRQTPDKRLEWVATISHGGSYTHYPDSVKGRFTISRDNAKNTLYLQMNSLKSEDTAMYYCVRLPITTVEAPYFFDYWGQGTTLTVSS VL: DIQMTQTTSSLSASLGDRVTISCRASQDIRNYLNWYQQKPDGTVKLLIYYTSILHSGVPSRFSGSGSGTDYSLTINNLEQEDVATYFCQQGNTLYTFGGGTEVELR	–	–	–	–	–	–	1680	6.15e-05	36600
F6.5.20 (antibody, human IgG1, V domains shown, human-murine chimeric antibody, human IgG1) VH: QVQLQQPGAELVKPGASVKLSCKASGYTFTSYWMQWVKQRPGQGLEWIGEIDPSDSYTNYNQKFKGKASLTVDTSSSTAYMQLSSLTSEDSAVYYCARWGLLRNYYVMDYWGQGTSVTVSS VL: EIVLTQSPTTMAASPGEKITITCSASSSISSNYLHWYQQKPGFSPKLLIYRTSNLASGVPARFSGSGSGTSYSLTIGTMEAEDVATYYCQQGSSIPRMLTFGAGTKLELK	48300	–	531	170	28600	~170	–	–	–
